Measured values taken from PMC4794909, “The transcription factor scleraxis is a critical regulator of cardiac fibroblast phenotype”.
Numbering of substitutions follows the chain as printed.

T1: scleraxis (Scx) (UniProt Q6P6L3 1-207)
T1 sequence: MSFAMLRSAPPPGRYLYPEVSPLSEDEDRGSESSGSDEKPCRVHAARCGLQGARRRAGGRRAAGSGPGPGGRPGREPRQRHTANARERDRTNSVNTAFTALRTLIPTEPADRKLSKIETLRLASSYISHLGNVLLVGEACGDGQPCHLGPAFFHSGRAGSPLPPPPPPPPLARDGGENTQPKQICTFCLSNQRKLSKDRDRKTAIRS

B1: E box 2 (E2), αSMA promoter (dsDNA)
DNA 1: GTTTATCCCCATAAGCAGCTGAACTGCCTCCTGTTT
DNA 2: AAACAGGAGGCAGTTCAGCTGCTTATGGGGATAAAC
B2: E box 2 mutant (mE2) (dsDNA)
DNA 1: B1 DNA 1 with A17T, C19G
DNA 2: B1 DNA 2 with G18C, T20A
B3: E box 1 (E1), αSMA promoter (dsDNA)
DNA 1: GTCTGGGCATTTGAGCAGTTGTTCTGAGGGCTCAGG
DNA 2: CCTGAGCCCTCAGAACAACTGCTCAAATGCCCAGAC
B4: E box 1 mutant (mE1) (dsDNA)
DNA 1: B3 DNA 1 with A17C, T19A
DNA 2: B3 DNA 2 with A18T, T20G

These binders were tested against T1, scleraxis (Scx) (assay: EMSA; LightShift Chemiluminescent EMSA Kit (Pierce) per manufacturer, as in ref. 18; 500x cold competition; buffer, salt, pH and temperature not given). Details: chain copies: 2; label: biotin; blunt.

Q: Does B1 bind?
A: binds

Q: Does B2 bind?
A: no binding

Q: Does B3 bind?
A: binds

Q: Does B4 bind?
A: no binding
